In assay [1] the target is membrane of human macrophages differentiated in vitro in the presence of M-CSF from CD14+ monocytes. The assay can be described thus: flow cytometry on human macrophages, AF647 label, 37 C.
In assay [2] the target is membrane of human CD14+ monocytes isolated from the peripheral blood of a healthy subject. The assay can be described thus: flow cytometry on human monocytes, AF647 label, 37 C. For orientation: In flow cytometry, cells or beads pass a laser one at a time.

Consider “non-specific antibody corresponding to an isotype control coupled to the Alexa Fluor (AF) 647 fluorochrome”, for which, in assay [1], the MFI was found to be 1640 MFI and the Ratio (MFI against that of the isotype control) stood at 1. In addition, in assay [2], the MFI came to 265 MFI and the Ratio (MFI against that of the isotype control) worked out at 1.

Source of the values: patent publication US20260091122A1.
